In the DeepSol protein solubility set:

Test: soluble on expression in E. coli; label from the status in PepcDB or PDB records

| Sequence | soluble on expression in E. coli |
| --- | --- |
| MNVSFSTPVQNSTASRLALIQQAAARSGALPPAGQYRGSKLSPFDVSQMSGVSISMVERAKINGPEFVEELEWLRQQTTSRCFLDAEMWTNEILAHLPDKWCAPNTLNLYNQVSELVLDNTRSPMASPASNSLYAPGEDQMPTVKRNHTSRFAQSLIKNKEFRRAAFFLEKTMNGNKLDHFLHFRCLFLAYYQEHLENDAEGIERKTSFAEERSPFSLLYQRMEDKKLRENEDVWFEYLMGLLEVELGLKDLAEKSFRNVVIREPRIWPAWEALSRLIADIEDADKFVTSAEVKSLWMGDWFMTLVLQRFHQHSMAIQKAEQLVTRGMTGLPMIITKIAACSNARHDHDQAISNFEDVRKADPYRLGDLHLLSDSLYIRNDQKKLSTLAIEVYKVHKFRWETCCIVANYHAIRRDSEHAIKFFQRALRLNPGLAALWVLIGHEFMEMKNNAAACVSYRRAIEIDPADHRGWYGLGQMYDIMKMPAYALFYYQEAQKCKPHDSRLLVALGDIYSKLNRIEDAEKCFTGAYLFGDVEGNALWSLAKLHERYSDDNKAAQAFEVFLVVYELVTSAEEKIIYAIAFLANHFFKIEDFDKASEYATKCLAFETLCQEGNRLFREIAKIQARESRLPVEEAPGPSNASAAGGQEAMDTEEAPQEGGEEEMSEGEDDFSF | not soluble |
| MSWQQRVDDALTARRVTDTLRRRYVVSQGAGRWLVANGRQYLNFSSNDYLGLSQHPQIIRAWQQAATRFGVGSGGSGHISGYSVAHQALEEELAQWLGYPRALLFISGFAANQAVITALMKKNDRIVADRLSHASLLEAANLSPAQLRRFIHNDTQHLSRLLQSPCVGQQLVVTEGVYSMDGDSAPLAEIQHIARRHHAWLLVDDAHGIGVTGDEGRGTCWLRGVKPELLVVTFGKGFGVSGAAVLCSESVADYLLQFARHLVYSTSMPPAQAQALSASLAVIRSDEGGERREKLAALVQRFRAGVNASRFTLLNAHSAIQPLIVGDNSRALRLAEALRQQGCWATAIRPPTVPVGTARLRLTLTQAHEACDIDRLLEVLHGAGE | not soluble |
| MSKFAMVFPGQGSQSLGMLADLAAQFPIVEATFSEASSVLGYDLWQLVQQGPAEELNKTWQTQPALLTASVAIWRIWQHQGGKLPSLMAGHSLGEYSALVCAGVLDFKQAVSLVELRGKLMQEAVPEGTGAMYAIIGLDNESIAKACEESAQGQVVSPVNFNSPGQVVIAGNKDAVERAGAACKAAGAKRALPLPVSVPSHCALMKPAADKLAVALEKIDFQEPLFPVVNNVDVKAEVSPVAIRSALVRQLYNPVRWTESVEFIAAEGVELLLEIGPGKVLTGLTKRIVDSLAAAAVNDVVTLNSALEH | not soluble |
| MVEDILAPGLRVVFCGINPGLSSAGTGFPFAHPANRFWKVIYQAGFTDRQLKPQEAQHLLDYRCGVTKLVDRPTVQANEVSKQELHAGGRKLIEKIEDYQPQALAILGKQAYEQGFSQRGAQWGKQTLTIGSTQIWVLPNPSGLSRVSLEKLVEAYRELDQALVVRGR | soluble |
| MGTIPASTYYPTHFMRGTQLNVANGNIKKVEDLSSDDFLRCAAESDDVIVNASVIKSIKSTAGSVTIIFETGIEKQLIPLKCQVEHPFFVLGKGWCSCNPRKSGENYGLDCEILQVDDVCIVLTRNEDKITDCAVDIVTAERDLELFSQRAALKEQLVDVYYERVSGRVSAPPERVLVTFSNEHRERRISE | not soluble |
| MMSVPQAREARRIDLGEMGWGEVQVDFYNPLVKRREIVMILHHELKPTPMRIMLRQKLAEVLGVDIKRIYIRYIKTGYGAGLSKVRVHVYDSPERALSFEPKYIIERNGGVNPFEEAEG | soluble |
| MSLNVQGNLFRPLTLPNGLSLENRFVLSPMVTNSSTSEGFVTDDDIAYAVRRAKSAPLQITGAAYITEYGQLFEYGFSVSKDEDIPGLTKLAKAMKSKGAKAVLQLTHAGRFSSHTLARHGYVYGPSPMQLQSPYPHQVKELTHKDILRIIDEYVQATRRAIQAGFDGVEISSAQRLLIQTFFSTFSNQRKDEYGPQTLTNRCRLGLEVFKAVQKVIREEAESDFILGFRATPEETRGSQIGYSIEEFMEFLEKILAIAQVDYLAIASWGHDVFRNTIRSEGVYKGQLVNQVIFEHFGDRVPIMATGGINSASKVFEALQHAHMIGASTPLVVDPEFLQKIKAKCSDQINLRIKVSDLEGLAIPKASFKDIVPLMDYGESEGHHHHHH | soluble |
| MMSSGPLDPSDVTLFTSYPSPIVVPLEFIEEQSKSSREELEIDESGLYIMSKALEEFMRTVMRGATQNGSRLLDYDSIAEFFANSEFRALKDFFPERVRFDEIESEILPTRATGPSNSS | not soluble |
| SMEVARAARLAQIFKEICDGIISYKDSSRQALAAPLLNLPPKKKNADYYEKISDPLDLITIEKQILTGYYKTVEAFDADMLKVFRNAEKYYGRKSPVGRDVCRLRKAYYNARHEASAQIDEIVGET | soluble |
| MGQGQSVILSFEDGARTVELARESVEAFVQNGQREQPGSMRDAFYNRTSAFVRLESTRGRGRLRGCAGAHGSIHELGNHDQQLGHAIVEAAIEAASEASCGSEVEDAELPNIRVSVCTVSNLVLTDDPIEDIELGVHGVAIDGDGQHGWMYPTLPVENDWSVFEYLDRTCRKANLPDGAWQDEDVMVTLFEGQVFRETGDEDDPVEELTALEHHHHHH | not soluble |
| MGSDKIHHHHHHMNRMAGCINDHLKRYGGLAAGREDEQKRYFAEKRLYALQIETTDACQQGCIFCYAGSTPREHHGLTSDEIRGLLRDAAALEIRAIDWLGGDPLVRPDWYELMQYARSLGLVNNVWTSGLPLKSKEVAARVHEVSEGGFVSVHVDSITPEVYAKLHRGGNPHFIEAIVEGVDNLLALGKPADMMINCITYTSLQGPEDAIKTMRWWFCEKGLRTCLTMFNPAGMGAEWRSLEPQLDEVQRVYTERDRIDYGGDNISIAAMDTDKYYCGTMATVTFTGDVTPCSVIREGVANIRTTPFRDIVARHLDTLVHAALHDVQNLPNPCNDCVNNAHCWGCRASAYHYSGDADGLDPKCWLIRTALTSDSFSVNNNLQKSTDEEIGLKP | not soluble |
| SGKQPVKLKAVVYALSPFQQKIMTGLWKDLPEKIHHKVSENWISATLLVTPVVGTYWYAQYFKEQEKLEHRF | soluble |
| HFESIQAVNKTLNKKGLPPIIVHFIEETLQDYELIGMLNNGYIKAIVLDSHKAKLWLNAMDDIKAHKKVPLRKNGNIAWVMRQNSPQLKAVVNKFIQKSRSGTLLGNVIYSKYIDNTNWLNKALNPKKIAQLEKLSA | not soluble |
| HIWLFFIEEGKNHYRVEFRSNGINVREVALKYGGGGHIQASGAVLKSKRDIIRVVQD | not soluble |
| MALHPAHPGAIIGHEAVLALLPRLTAQTLLFSGPEGVGRRTVARWYAWGLNRGFPPPSLGEHPDVLEVGPKARDLRGRAEVRLEEVAPLLEWCSSHPRERVKVAILDSAHLLTEAAANALLKLLEEPPSYARIVLIAPSRATLLPTLASRATEVAFAPVPEEALRALTQDPELLRYAAGAPGRLLRALQDPEGYRARMARAQRVLKAPPLERLALLRELLAEEEGVHALHAVLKRPEHLLALERAREALEGYVSPELVLARLALDLET | soluble |
| AIACHTQVGGSMQVPEPRRPFTCSSENNVTNSFFEEAYSASFRSKLYNMVEEIEQERAKYCNSANLSYMDAFGVEKESIEEDYNKEEDRDSLCSVDIADNSETSNRSSEDLLCDNCSKSLMFLNNVFKWNDLLFCNLDCYTSAILKNQKGADVKHRVACSLSPTWHKDCVHSVQD | soluble |
| MSFIDPYQHIIVEHQYSHKFTVVVLRATKVTKGAFGDMLDTPDPYVELFISTTPDSRKRTRHFNNDINPVWNETFEFILDPNQENVLEITLMDANYVMDETLGTATFTVSSMKVGEKKEVPFIFNQVTEMVLEMSLEV | soluble |
| MTLILKRVQLLKDKPRREAIDRFLRQHQLSLEADCEMAIIAEYQQRLVGCGAIAGNVLKCIAIDPSLQGEGLSLKLLTELLTLAYELGRSELFLFTKPCNAALFSGAGFWPIAQAGDRAVLMENSRERLTRYCRQLAMYRQPGRKIGAIVMNANPFTLGHRWLVEQAASQCDWLHLFVVKEDASCFSYHDRFKLIEQGITGIDKVTLHPGSAYLISRATFPGYFLKEQGVVDDCHSQIDLQLFRERLAPALQITHRFVGTEPLCPLTRNYNQRMKSLLEAPGDAPPIEVVELARIEKNGGPVSASRVRELYRQRNWQAVAALVPPGTLSFLMQLAESEHQTA | not soluble |
